Numbering of substitutions follows the chain as printed.
B1: H482L472 (antibody, human IgG1, kappa, V domains shown)
VH: EVQLVESGGGLVQPGGSLRLSCAASGFTFSDAWMDWVRQAPGKGLEWVGEIRNKANNHATYQAESVKGRFTISRDDSKNSVYLQMNSLKTEDTAVYYCTRAPFDLLVRRGYYIMDYWGQGTLVTVSS
VL: DIQMTQSPSSLSASVGDRVTITCRTSQDISIYLNWYQQKPGKAPKLLIYYTSRLRSGVPSRFSGSGSGTDFTLTISSLQPEDFATYFCQQGSTLPWTFGGGTKLEIKR
notes: also called UBP1213sc (its formulation); UBP1213
B2: H483L473 (antibody, human IgG1, kappa, V domains shown)
VH: B1 VH with Q13K, N79S, S80T
VL: B1 VL with L73F, F83I
B3: H484L474 (antibody, human IgG1, kappa, V domains shown)
VH: B1 VH with G49A, N79S, K89R, T90A
VL: B1 VL with L11V

What follows are binders tested against 人可溶性BLyS (human soluble BLyS) (human, UniProt Q9Y275 134-285) (assay: cell-based or functional assay).
Chain of 人可溶性BLyS (human soluble BLyS) (Q9Y275 134-285 limits assumed): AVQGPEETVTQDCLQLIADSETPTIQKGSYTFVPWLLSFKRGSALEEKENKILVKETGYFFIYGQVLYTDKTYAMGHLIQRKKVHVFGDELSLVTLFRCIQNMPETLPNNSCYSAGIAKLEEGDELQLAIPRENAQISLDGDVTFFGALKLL

How did the “IC50 of inhibition of the NF-κB signal downstream of human BLyS binding TACI (luciferase reporter gene assay)” value turn out when B1 was run?
Its value is 37.6 ng/mL.

Which “IC50 of inhibition of the NF-κB signal downstream of human BLyS binding TACI (luciferase reporter gene assay)” value does the source give for B2 here?
The value was 29.3 ng/mL.

B3 was tested. Which “IC50 of inhibition of the NF-κB signal downstream of human BLyS binding TACI (luciferase reporter gene assay)” value did it give?
The value was 31.5 ng/mL.

What follows are binders tested against T1, 重组人BLyS蛋白 (recombinant human BLyS protein) (human, UniProt Q9Y275 134-285) (assay: Blocking ELISA, human BLyS coated, competition with human BR3).
T1 construct: Recombinant human BLyS coated on hydrophobic ELISA plates; also called B淋巴细胞刺激因子; BAFF
T1 sequence (Q9Y275 134-285 limits assumed): as above

B1 was tested. Which IC50 did it give?
The IC50 was 1.24 µg/mL.

Which IC50 does the source give for B2 here?
The IC50 was 0.858 µg/mL.

B3 was tested. Which IC50 did it give?
Its IC50 is 1.27 µg/mL.

— CN115232208A (SHANGHAI JUNSHI BIOSCIENCES CO LTD; JUNMENG BIOSCIENCES CO …, dated 2022)
